B1: B-cell lymphoma/leukemia 10 (Homo sapiens), O95999 (parent)
chain: MEPTAPSLTEEDLTEVKKDALENLRVYLCEKIIAERHFDHLRAKKILSREDTEEISCRTSSRKRAGKLLDYLQENPKGLDTLVESIRREKTQNFLIQKITDEVLKLRNIKLEHLKGLKCSSCEPFPDGATNNLSRSNSDESNFSEKLRASTVMYHPEGESSTTPFFSTNSSLNLPVLEVGRTENTIFSSTTLPRPGDPGAPPLPPDLQLEEEGTCANSSEMFLPLRSRTVSRQ
partner: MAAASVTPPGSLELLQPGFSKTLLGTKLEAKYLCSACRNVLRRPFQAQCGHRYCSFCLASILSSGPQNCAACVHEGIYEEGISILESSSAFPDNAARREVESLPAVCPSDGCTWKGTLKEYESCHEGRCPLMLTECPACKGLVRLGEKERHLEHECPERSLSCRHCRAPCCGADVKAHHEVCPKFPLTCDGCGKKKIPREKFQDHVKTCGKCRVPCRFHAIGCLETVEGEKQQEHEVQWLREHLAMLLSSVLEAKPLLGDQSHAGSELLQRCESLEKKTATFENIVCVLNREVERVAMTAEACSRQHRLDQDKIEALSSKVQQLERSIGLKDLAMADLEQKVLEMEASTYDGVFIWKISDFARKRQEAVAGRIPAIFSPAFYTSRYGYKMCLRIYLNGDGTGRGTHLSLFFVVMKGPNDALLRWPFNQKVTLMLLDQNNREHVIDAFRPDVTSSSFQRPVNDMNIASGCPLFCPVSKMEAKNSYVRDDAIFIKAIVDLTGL
B2: Tribbles homolog 3 (Homo sapiens), Q96RU7 (parent)
chain: MRATPLAAPAGSLSRKKRLELDDNLDTERPVQKRARSGPQPRLPPCLLPLSPPTAPDRATAVATASRLGPYVLLEPEEGGRAYQALHCPTGTEYTCKVYPVQEALAVLEPYARLPPHKHVARPTEVLAGTQLLYAFFTRTHGDMHSLVRSRHRIPEPEAAVLFRQMATALAHCHQHGLVLRDLKLCRFVFADRERKKLVLENLEDSCVLTGPDDSLWDKHACPAYVGPEILSSRASYSGKAADVWSLGVALFTMLAGHYPFQDSEPVLLFGKIRRGAYALPAGLSAPARCLVRCLLRREPAERLTATGILLHPWLRQDPMPLAPTRSHLWEAAQVVPDGLGLDEAREEEGDREVVLYG
partner: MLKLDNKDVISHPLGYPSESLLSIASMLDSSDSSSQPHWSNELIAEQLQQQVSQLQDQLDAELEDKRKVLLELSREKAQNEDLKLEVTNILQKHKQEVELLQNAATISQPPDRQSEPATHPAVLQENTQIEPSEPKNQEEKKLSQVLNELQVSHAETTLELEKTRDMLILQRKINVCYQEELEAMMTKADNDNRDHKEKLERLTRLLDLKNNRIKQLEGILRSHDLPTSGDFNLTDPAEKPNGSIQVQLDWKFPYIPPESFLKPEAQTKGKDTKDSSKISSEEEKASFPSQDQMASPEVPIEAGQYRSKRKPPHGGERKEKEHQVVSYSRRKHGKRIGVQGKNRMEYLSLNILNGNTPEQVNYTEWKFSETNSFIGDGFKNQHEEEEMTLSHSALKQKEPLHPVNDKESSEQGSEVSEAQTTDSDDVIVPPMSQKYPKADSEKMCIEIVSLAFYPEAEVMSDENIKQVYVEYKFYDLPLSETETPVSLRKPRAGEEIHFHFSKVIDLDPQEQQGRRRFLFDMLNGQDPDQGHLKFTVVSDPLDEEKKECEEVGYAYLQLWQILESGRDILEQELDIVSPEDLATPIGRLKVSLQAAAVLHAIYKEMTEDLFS
B3: Carbonic anhydrase-related protein (Homo sapiens), P35219 (parent)
chain: MADLSFIEDTVAFPEKEEDEEEEEEGVEWGYEEGVEWGLVFPDANGEYQSPINLNSREARYDPSLLDVRLSPNYVVCRDCEVTNDGHTIQVILKSKSVLSGGPLPQGHEFELYEVRFHWGRENQRGSEHTVNFKAFPMELHLIHWNSTLFGSIDEAVGKPHGIAIIALFVQIGKEHVGLKAVTEILQDIQYKGKSKTIPCFNPNTLLPDPLLRDYWVYEGSLTIPPCSEGVTWILFRYPLTISQLQIEEFRRLRTHVKGAELVEGCDGILGDNFRPTQPLSDRVIRAAFQ
partner: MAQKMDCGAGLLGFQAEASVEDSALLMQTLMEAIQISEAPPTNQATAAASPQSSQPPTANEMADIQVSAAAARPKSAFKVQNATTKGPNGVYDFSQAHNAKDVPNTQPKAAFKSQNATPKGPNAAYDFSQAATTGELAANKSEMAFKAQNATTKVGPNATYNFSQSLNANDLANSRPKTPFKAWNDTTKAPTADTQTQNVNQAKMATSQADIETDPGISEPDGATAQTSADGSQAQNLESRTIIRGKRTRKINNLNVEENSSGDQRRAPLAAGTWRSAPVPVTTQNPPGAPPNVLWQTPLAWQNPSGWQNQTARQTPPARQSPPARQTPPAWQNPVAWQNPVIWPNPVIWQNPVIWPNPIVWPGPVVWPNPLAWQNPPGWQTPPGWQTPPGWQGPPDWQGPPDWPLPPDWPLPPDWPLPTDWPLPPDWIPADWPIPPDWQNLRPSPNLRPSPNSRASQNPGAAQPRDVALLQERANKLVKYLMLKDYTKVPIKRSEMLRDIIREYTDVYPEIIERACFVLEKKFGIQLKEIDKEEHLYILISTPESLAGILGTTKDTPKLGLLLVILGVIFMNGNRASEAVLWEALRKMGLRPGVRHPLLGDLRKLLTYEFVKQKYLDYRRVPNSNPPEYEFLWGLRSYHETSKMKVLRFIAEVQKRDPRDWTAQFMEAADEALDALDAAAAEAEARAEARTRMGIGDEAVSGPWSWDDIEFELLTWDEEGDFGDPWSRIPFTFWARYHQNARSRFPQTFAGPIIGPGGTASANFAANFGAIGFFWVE
B4: EGF-containing fibulin-like extracellular matrix protein 1 (Homo sapiens), Q12805 (parent)
chain: MLKALFLTMLTLALVKSQDTEETITYTQCTDGYEWDPVRQQCKDIDECDIVPDACKGGMKCVNHYGGYLCLPKTAQIIVNNEQPQQETQPAEGTSGATTGVVAASSMATSGVLPGGGFVASAAAVAGPEMQTGRNNFVIRRNPADPQRIPSNPSHRIQCAAGYEQSEHNVCQDIDECTAGTHNCRADQVCINLRGSFACQCPPGYQKRGEQCVDIDECTIPPYCHQRCVNTPGSFYCQCSPGFQLAANNYTCVDINECDASNQCAQQCYNILGSFICQCNQGYELSSDRLNCEDIDECRTSSYLCQYQCVNEPGKFSCMCPQGYQVVRSRTCQDINECETTNECREDEMCWNYHGGFRCYPRNPCQDPYILTPENRCVCPVSNAMCRELPQSIVYKYMSIRSDRSVPSDIFQIQATTIYANTINTFRIKSGNENGEFYLRQTSPVSAMLVLVKSLSGPREHIVDLEMLTVSSIGTFRTSSVLRLTIIVGPFSF
partner: B1 partner
B5: Casein kinase I isoform epsilon (Homo sapiens), P49674 (parent)
chain: MELRVGNKYRLGRKIGSGSFGDIYLGANIASGEEVAIKLECVKTKHPQLHIESKFYKMMQGGVGIPSIKWCGAEGDYNVMVMELLGPSLEDLFNFCSRKFSLKTVLLLADQMISRIEYIHSKNFIHRDVKPDNFLMGLGKKGNLVYIIDFGLAKKYRDARTHQHIPYRENKNLTGTARYASINTHLGIEQSRRDDLESLGYVLMYFNLGSLPWQGLKAATKRQKYERISEKKMSTPIEVLCKGYPSEFSTYLNFCRSLRFDDKPDYSYLRQLFRNLFHRQGFSYDYVFDWNMLKFGAARNPEDVDRERREHEREERMGQLRGSATRALPPGPPTGATANRLRSAAEPVASTPASRIQPAGNTSPRAISRVDRERKVSMRLHRGAPANVSSSDLTGRQEVSRIPASQTSVPFDHLGK
partner: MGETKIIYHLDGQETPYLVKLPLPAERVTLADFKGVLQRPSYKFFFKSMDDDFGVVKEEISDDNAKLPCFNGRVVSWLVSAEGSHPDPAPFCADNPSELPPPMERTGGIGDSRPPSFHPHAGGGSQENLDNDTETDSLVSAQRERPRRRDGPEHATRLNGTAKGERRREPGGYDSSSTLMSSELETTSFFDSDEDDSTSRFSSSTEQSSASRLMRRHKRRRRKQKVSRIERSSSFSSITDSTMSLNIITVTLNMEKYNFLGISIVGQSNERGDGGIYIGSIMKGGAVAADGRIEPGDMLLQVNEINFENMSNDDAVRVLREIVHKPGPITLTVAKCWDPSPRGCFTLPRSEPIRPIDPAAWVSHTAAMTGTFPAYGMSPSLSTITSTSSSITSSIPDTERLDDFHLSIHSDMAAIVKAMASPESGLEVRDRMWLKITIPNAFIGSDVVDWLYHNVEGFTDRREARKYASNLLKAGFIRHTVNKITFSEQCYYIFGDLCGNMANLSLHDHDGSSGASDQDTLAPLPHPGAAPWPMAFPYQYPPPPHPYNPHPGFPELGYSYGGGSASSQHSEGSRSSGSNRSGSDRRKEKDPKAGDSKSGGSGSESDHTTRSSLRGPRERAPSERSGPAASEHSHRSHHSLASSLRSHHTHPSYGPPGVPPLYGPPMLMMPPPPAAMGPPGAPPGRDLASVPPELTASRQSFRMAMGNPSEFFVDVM
B6: PiggyBac transposable element-derived protein 1 (Homo sapiens), Q96JS3 (parent)
chain: MYEALPGPAPENEDGLVKVKEEDPTWEQVCNSQEGSSHTQEICRLRFRHFCYQEAHGPQEALAQLRELCHQWLRPEMHTKEQIMELLVLEQFLTILPKELQPCVKTYPLESGEEAVTVLENLETGSGDTGQQASVYIQGQDMHPMVAEYQGVSLECQSLQLLPGITTLKCEPPQRPQGNPQEVSGPVPHGSAHLQEKNPRDKAVVPVFNPVRSQTLVKTEEETAQAVAAEKWSHLSLTRRNLCGNSAQETVMSLSPMTEEIVTKDRLFKAKQETSEEMEQSGEASGKPNRECAPQIPCSTPIATERTVAHLNTLKDRHPGDLWARMHISSLEYAAGDITRKGRKKDKARVSELLQGLSFSGDSDVEKDNEPEIQPAQKKLKVSCFPEKSWTKRDIKPNFPSWSALDSGLLNLKSEKLNPVELFELFFDDETFNLIVNETNNYASQKNVSLEVTVQEMRCVFGVLLLSGFMRHPRREMYWEVSDTDQNLVRDAIRRDRFELIFSNLHFADNGHLDQKDKFTKLRPLIKQMNKNFLLYAPLEEYYCFDKSMCECFDSDQFLNGKPIRIGYKIWCGTTTQGYLVWFEPYQEESTMKVDEDPDLGLGGNLVMNFADVLLERGQYPYHLCFDSFFTSVKLLSALKKKGVRATGTIRENRTEKCPLMNVEHMKKMKRGYFDFRIEENNEIILCRWYGDGIISLCSNAVGIEPVNEVSCCDADNEEIPQISQPSIVKVYDECKEGVAKMDQIISKYRVRIRSKKWYSILVSYMIDVAMNNAWQLHRACNPGASLDPLDFRRFVAHFYLEHNAHLSD
partner: B1 partner

Variants of: B1
Conditions: with traf2_human TRAF2, Q12933

Variant	effect of a mutation on the interaction
A5S	with no effect

Variants of: B2
Conditions: with RPGRIP1, Q96KN7-4

Variant	effect of a mutation on the interaction
Q84R	with no effect

Variants of: B3
Conditions: with magd1_human MAGED1, Q9Y5V3

Variant	effect of a mutation on the interaction
S100P	disrupting interaction strength

Variants of: B4
Conditions: with traf2_human TRAF2, Q12933

Variant	effect of a mutation on the interaction
R345W	with no effect

Variants of: B5
Conditions: with dvl3_human DVL3, Q92997

Variant	effect of a mutation on the interaction
S408N	disrupting interaction strength

Variants of: B6
Conditions: with traf2_human TRAF2, Q12933

Variant	effect of a mutation on the interaction
G244E	with no effect
P256L	with no effect
